Measured values taken from article PMC11417369, “DNA sequence and chromatin differentiate sequence-specific transcription factor binding in the human malaria parasite Plasmodium falciparum”.

B1: CACACA_negctrl_site1235 (dsDNA)
DNA 1: TTTAAAAAAAAAAAAAAAAAAAAAAAAAAAAATTTG
DNA 2: CAAATTTTTTTTTTTTTTTTTTTTTTTTTTTTTAAA
B2: CACACA_negctrl_site1512 (dsDNA)
DNA 1: ACGAATTAAATGGATTAATATATATATGTATATTTA
DNA 2: TAAATATACATATATATATTAATCCATTTAATTCGT
B3: CACACA_negctrl_site629 (dsDNA)
DNA 1: TGCTTATATCTTATAATATTTATACATCATAATAAG
DNA 2: CTTATTATGATGTATAAATATTATAAGATATAAGCA
B4: CACACA_negctrl_site580 (dsDNA)
DNA 1: TATTAAAAAAAAAAATAAAAAAATAAAATAAAATAA
DNA 2: TTATTTTATTTTATTTTTTTATTTTTTTTTTTAATA
B5: CACACA_negctrl_site1411 (dsDNA)
DNA 1: AATTAAAGGAATTACAACTTTGCAAGCGCAACATAA
DNA 2: TTATGTTGCGCTTGCAAAGTTGTAATTCCTTTAATT
B6: CACACA_negctrl_site1022 (dsDNA)
DNA 1: ATAAATTGTTCTTTTTGTGTAAACAGAATATTAAAA
DNA 2: TTTTAATATTCTGTTTACACAAAAAGAACAATTTAT
B7: CACACA_negctrl_site1 (dsDNA)
DNA 1: TTTTTTATTGTGATACGTATATTATTTTTTGATAAA
DNA 2: TTTATCAAAAAATAATATACGTATCACAATAAAAAA
B8: CACACA_negctrl_site1092 (dsDNA)
DNA 1: TCAAAATGTGACATAAAAGAAAAAAAAAAAAAAAAA
DNA 2: TTTTTTTTTTTTTTTTTCTTTTATGTCACATTTTGA
B9: CACACA_site7658 (dsDNA)
DNA 1: AATAAAAAGGAACACACACACACACGGATATAAATA
DNA 2: TATTTATATCCGTGTGTGTGTGTGTTCCTTTTTATT
B10: CACACA_negctrl_site1162 (dsDNA)
DNA 1: ACACAAAAAAAAAAAAAAAAAAAAAAAAAAAAGGAA
DNA 2: TTCCTTTTTTTTTTTTTTTTTTTTTTTTTTTTGTGT
B11: CACACA_negctrl_site215 (dsDNA)
DNA 1: ATAAAATATTATATATATATATATATATATATATAT
DNA 2: ATATATATATATATATATATATATATAATATTTTAT
B12: CACACA_negctrl_site474 (dsDNA)
DNA 1: TAAAAAAAGGAAAACATACAATTCTATTTTTCAATA
DNA 2: TATTGAAAAATAGAATTGTATGTTTTCCTTTTTTTA
B13: CACACA_negctrl_site272 (dsDNA)
DNA 1: TACCTTTCTTATTATTGAAAAGGAATATATAAATAG
DNA 2: CTATTTATATATTCCTTTTCAATAATAAGAAAGGTA
B14: CACACA_negctrl_site1152 (dsDNA)
DNA 1: TCATATTTGCCTTTTTATTTAGAACACAAAAAAAAA
DNA 2: TTTTTTTTTGTGTTCTAAATAAAAAGGCAAATATGA
B15: CACACA_negctrl_site368 (dsDNA)
DNA 1: TTTTTCATTTCTGCATTTATTTATAAATAAATATTT
DNA 2: AAATATTTATTTATAAATAAATGCAGAAATGAAAAA
B16: CACACA_negctrl_site1028 (dsDNA)
DNA 1: ATTTTTTTATGTACACAAAAAAAAAAAAAAATTTAA
DNA 2: TTAAATTTTTTTTTTTTTTTGTGTACATAAAAAAAT
B17: CACACA_negctrl_site1828 (dsDNA)
DNA 1: ATCTCAAATATAATAAATTATTAGGTATATATATAT
DNA 2: ATATATATATACCTAATAATTTATTATATTTGAGAT
B18: CACACA_negctrl_site844 (dsDNA)
DNA 1: AATATCATCCTTTTTTTTTATAAAATTTAAAATATA
DNA 2: TATATTTTAAATTTTATAAAAAAAAAGGATGATATT
B19: CACACA_negctrl_site1564 (dsDNA)
DNA 1: AAAATGTCCCGTAGAAAATAAATTTATTACGCAATA
DNA 2: TATTGCGTAATAAATTTATTTTCTACGGGACATTTT
B20: CACACA_negctrl_site929 (dsDNA)
DNA 1: ACAGATATACATAAAAAAAAAATAATTTTACATATA
DNA 2: TATATGTAAAATTATTTTTTTTTTATGTATATCTGT
B21: CACACA_negctrl_site721 (dsDNA)
DNA 1: TTTTAAAAAAAATAAAAAATAAACAATAATAAATAA
DNA 2: TTATTTATTATTGTTTATTTTTTATTTTTTTTAAAA
B22: CACACA_negctrl_site1096 (dsDNA)
DNA 1: ATTATATTCTTTACTACCAATTAGTAGAAAATAAAA
DNA 2: TTTTATTTTCTACTAATTGGTAGTAAAGAATATAAT
B23: CACACA_negctrl_site1762 (dsDNA)
DNA 1: TTTTTTTCTTCTTTTCTCTTAAAAATATTGAATATT
DNA 2: AATATTCAATATTTTTAAGAGAAAAGAAGAAAAAAA
B24: CACACA_negctrl_site347 (dsDNA)
DNA 1: TTATATATATTTAAAAAAATAACATAAATAAATAAA
DNA 2: TTTATTTATTTATGTTATTTTTTTAAATATATATAA
B25: CACACA_negctrl_site1286 (dsDNA)
DNA 1: TTGTATTCCTTTTACAACTACCATGAAGAGAATTTT
DNA 2: AAAATTCTCTTCATGGTAGTTGTAAAAGGAATACAA
B26: CACACA_negctrl_site49 (dsDNA)
DNA 1: AATATATAAATATATATAAATAAATATATATATAAA
DNA 2: TTTATATATATATTTATTTATATATATTTATATATT
B27: CACACA_negctrl_site607 (dsDNA)
DNA 1: TGTGTCAAGTTTAATAAACGCATATAATATATATGA
DNA 2: TCATATATATTATATGCGTTTATTAAACTTGACACA
B28: CACACA_negctrl_site217 (dsDNA)
DNA 1: TAATTTCATCATATTTGTTCCTTCTCAAAATTTTTT
DNA 2: AAAAAATTTTGAGAAGGAACAAATATGATGAAATTA
B29: CACACA_negctrl_site398 (dsDNA)
DNA 1: TATTTATTTATTTATTTATTTATTTATTTATATTTA
DNA 2: TAAATATAAATAAATAAATAAATAAATAAATAAATA
B30: CACACA_negctrl_site680 (dsDNA)
DNA 1: AACACTCAAAAAAATTTAAATAAAAAAAAAAAAAAA
DNA 2: TTTTTTTTTTTTTTTATTTAAATTTTTTTGAGTGTT
B31: CACACA_negctrl_site1531 (dsDNA)
DNA 1: TATTTCCATTCATAATTTTGTAGAATATATAACCGT
DNA 2: ACGGTTATATATTCTACAAAATTATGAATGGAAATA
B32: CACACA_negctrl_site1232 (dsDNA)
DNA 1: AATATTTTTCAATTTCATGTGCATTCATTGAAGTTA
DNA 2: TAACTTCAATGAATGCACATGAAATTGAAAAATATT
B33: CACACA_negctrl_site660 (dsDNA)
DNA 1: TTTTCTTAATATTTCGTTTTACATAAACCTTTTAAA
DNA 2: TTTAAAAGGTTTATGTAAAACGAAATATTAAGAAAA
B34: CACACA_negctrl_site484 (dsDNA)
DNA 1: ATTCATATTAAATATATATATATATATATATATATA
DNA 2: TATATATATATATATATATATATATTTAATATGAAT
B35: CACACA_negctrl_site1260 (dsDNA)
DNA 1: TAAATCATTTCATGGCATTTACACAAAATTTTTTAA
DNA 2: TTAAAAAATTTTGTGTAAATGCCATGAAATGATTTA
B36: CACACA_negctrl_site148 (dsDNA)
DNA 1: TTTTTGATGAAATATTATTTTCCTGACTTGGATTAA
DNA 2: TTAATCCAAGTCAGGAAAATAATATTTCATCAAAAA
B37: CACACA_site2305 (dsDNA)
DNA 1: TTCCCCCCCAGACACACACACACATACATACCACAT
DNA 2: ATGTGGTATGTATGTGTGTGTGTGTCTGGGGGGGAA
B38: CACACA_negctrl_site809 (dsDNA)
DNA 1: AAATAATATTTTTTTTTTTTTTTTTTTTTATGTTAT
DNA 2: ATAACATAAAAAAAAAAAAAAAAAAAAATATTATTT
B39: CACACA_negctrl_site1139 (dsDNA)
DNA 1: ATTTTTTTTTTTTTTATTCCCCTTTCGAAAAAAACC
DNA 2: GGTTTTTTTCGAAAGGGGAATAAAAAAAAAAAAAAT
B40: CACACA_negctrl_site842 (dsDNA)
DNA 1: ACTAAAAGATATATAATTTCTTTCTTATTTATTTTT
DNA 2: AAAAATAAATAAGAAAGAAATTATATATCTTTTAGT
B41: CACACA_negctrl_site1685 (dsDNA)
DNA 1: ATATATATATAAATATAAATATATATATATATATAT
DNA 2: ATATATATATATATATATTTATATTTATATATATAT

molecular target: T1, AP2-HC D1 (Plasmodium falciparum, UniProt Q8IKR9 1316-1374); test: gcPBM; about 25 ug protein; PBS, 1% milk, 0.2 mg/ml BSA, salmon testes DNA, 0.03% Triton X-100; settings: tags: N-terminal GST (pGEX-4T-1), kept; label: surface-attached array probe
T1 sequence: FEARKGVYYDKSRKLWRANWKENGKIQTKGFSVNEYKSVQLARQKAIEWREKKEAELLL

Binder | binding signal
B1 | 9.1 ln median PBM intensity, better of two orientations
B2 | 9.5 ln median PBM intensity, better of two orientations
B3 | 9.47 ln median PBM intensity, better of two orientations
B4 | 9.47 ln median PBM intensity, better of two orientations
B5 | 9.47 ln median PBM intensity, better of two orientations
B6 | 9.48 ln median PBM intensity, better of two orientations
B7 | 9.51 ln median PBM intensity, better of two orientations
B8 | 9 ln median PBM intensity, better of two orientations
B9 | 11.7 ln median PBM intensity, better of two orientations
B10 | 9.5 ln median PBM intensity, better of two orientations
B11 | 9.5 ln median PBM intensity, better of two orientations
B12 | 9.49 ln median PBM intensity, better of two orientations
B13 | 9.13 ln median PBM intensity, better of two orientations
B14 | 9.29 ln median PBM intensity, better of two orientations
B15 | 9.47 ln median PBM intensity, better of two orientations
B16 | 9.48 ln median PBM intensity, better of two orientations
B17 | 9.46 ln median PBM intensity, better of two orientations
B18 | 9.5 ln median PBM intensity, better of two orientations
B19 | 9.41 ln median PBM intensity, better of two orientations
B20 | 9.47 ln median PBM intensity, better of two orientations
B21 | 9.49 ln median PBM intensity, better of two orientations

Binder | binding signal
B22 | 9.31 ln median PBM intensity, better of two orientations
B23 | 9.49 ln median PBM intensity, better of two orientations
B24 | 9.47 ln median PBM intensity, better of two orientations
B25 | 9.49 ln median PBM intensity, better of two orientations
B26 | 9.5 ln median PBM intensity, better of two orientations
B27 | 9.51 ln median PBM intensity, better of two orientations
B28 | 9.48 ln median PBM intensity, better of two orientations
B29 | 9.48 ln median PBM intensity, better of two orientations
B30 | 9.05 ln median PBM intensity, better of two orientations
B31 | 9.51 ln median PBM intensity, better of two orientations
B32 | 9.51 ln median PBM intensity, better of two orientations
B33 | 9.51 ln median PBM intensity, better of two orientations
B34 | 9.51 ln median PBM intensity, better of two orientations
B35 | 9.48 ln median PBM intensity, better of two orientations
B36 | 9.49 ln median PBM intensity, better of two orientations
B37 | 12.1 ln median PBM intensity, better of two orientations
B38 | 9.46 ln median PBM intensity, better of two orientations
B39 | 9.47 ln median PBM intensity, better of two orientations
B40 | 9.49 ln median PBM intensity, better of two orientations
B41 | 9.5 ln median PBM intensity, better of two orientations

molecular target: T2, PF3D7_0420300 D1 (Plasmodium falciparum, UniProt Q8I1N6 1956-2015); test: as above; settings: tags: N-terminal GST (pGEX-4T-1), kept; label: surface-attached array probe
T2 sequence: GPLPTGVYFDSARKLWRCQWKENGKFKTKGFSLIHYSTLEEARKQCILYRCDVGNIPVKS

Binder | binding signal
B1 | 8.59 ln median PBM intensity, better of two orientations
B8 | 8.62 ln median PBM intensity, better of two orientations
B9 | 10.5 ln median PBM intensity, better of two orientations
B13 | 8.89 ln median PBM intensity, better of two orientations
B14 | 8.77 ln median PBM intensity, better of two orientations
B19 | 9.06 ln median PBM intensity, better of two orientations
B22 | 8.9 ln median PBM intensity, better of two orientations
B26 | 8.92 ln median PBM intensity, better of two orientations
B30 | 8.7 ln median PBM intensity, better of two orientations
B36 | 8.86 ln median PBM intensity, better of two orientations
B37 | 10.4 ln median PBM intensity, better of two orientations
B39 | 9.05 ln median PBM intensity, better of two orientations
